Measured values as given in patent US20090311243A1.

Assays:
human Fzd8 (human) = human Fzd8 (human) (UniProt Q9H461); test: cell-based or functional assay
[1] = molecular target: recombinant Wnt3a protein (R&D systems); test: cell-based or functional assay

Sequence of UniProt Q9H461 (Q9H461 28-694): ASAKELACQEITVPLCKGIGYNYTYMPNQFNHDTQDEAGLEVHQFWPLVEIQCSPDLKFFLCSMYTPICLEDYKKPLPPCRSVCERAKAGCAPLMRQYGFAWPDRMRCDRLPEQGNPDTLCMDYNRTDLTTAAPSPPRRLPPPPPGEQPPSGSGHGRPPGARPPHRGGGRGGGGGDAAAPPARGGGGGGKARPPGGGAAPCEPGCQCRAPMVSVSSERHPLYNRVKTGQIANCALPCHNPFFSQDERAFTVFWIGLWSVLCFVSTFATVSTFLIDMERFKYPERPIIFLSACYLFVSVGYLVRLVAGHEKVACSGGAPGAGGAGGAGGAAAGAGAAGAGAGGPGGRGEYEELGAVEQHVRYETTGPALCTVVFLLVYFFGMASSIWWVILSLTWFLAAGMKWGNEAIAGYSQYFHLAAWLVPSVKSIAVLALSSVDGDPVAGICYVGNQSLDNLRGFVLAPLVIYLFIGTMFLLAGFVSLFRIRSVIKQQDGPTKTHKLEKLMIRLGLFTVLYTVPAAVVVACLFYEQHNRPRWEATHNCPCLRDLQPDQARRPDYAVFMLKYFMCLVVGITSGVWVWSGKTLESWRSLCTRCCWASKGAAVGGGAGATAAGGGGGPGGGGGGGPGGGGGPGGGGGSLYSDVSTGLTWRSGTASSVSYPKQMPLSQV
Sequence of recombinant Wnt3a protein (R&D systems) (P27467 19-352): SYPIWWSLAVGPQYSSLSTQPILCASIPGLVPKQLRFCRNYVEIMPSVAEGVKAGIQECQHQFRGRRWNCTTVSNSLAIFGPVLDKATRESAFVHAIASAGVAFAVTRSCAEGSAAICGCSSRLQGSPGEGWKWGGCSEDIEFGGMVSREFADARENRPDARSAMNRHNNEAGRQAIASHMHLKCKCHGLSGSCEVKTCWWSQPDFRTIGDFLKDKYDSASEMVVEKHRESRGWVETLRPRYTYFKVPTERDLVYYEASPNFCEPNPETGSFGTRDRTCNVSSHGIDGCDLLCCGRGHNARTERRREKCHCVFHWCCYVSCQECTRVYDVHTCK

## human Wnt8a (from UniProt Q9H1J5 25-351) (ligand)
Human Fzd8 (human)
  Wnt8a mediated SOX9 mRNA reduction in primary chondrocytes, rescue by Fzd8 siRNA (quantitative PCR): 52%

## murine Fzd8 CRD Fc fusion (R&D systems) (from UniProt Q61091 28-173)
[1]
  ND50, inhibition of Wnt3a-induced TCF reporter luciferase activity in Fzd8:CHOK1 cells: 0.027 µg/mL

## recombinant Wnt3a protein (R&D systems) (ligand)
Human Fzd8 (human)
  TCF/LEF reporter (TOPFlash) luciferase activity, normalized to Renilla luciferase: 10.4 fold
